Test results from PMC2196183.
“And” between values parts separate entries of the source, which are not always exact repeats. Equal entries are not always repeated.

Molecular target: GSK3 binding protein (GBP) on beads (Xenopus)
Experiment: pull-down

B1: dishevelled (dsh), radiolabeled (natural protein)
chain: MAETKVIYHLDEEETPYLVKVPVPATDIRLRDFKAALGRGHAKYFFKAMDQDFGVVKEEISDDNAKLPCFNDRVVSWLASSEGSQPDSAPPAPATEVRPEPPPPVPPPIPPPPAERTSGIGDSRPPSFHPNVSGSTEQLDQDNESVISMRRDRVRRRESSEQAGVGRGVNGRTERHLSGYESSSTLLTSEIETSICDSEEDDTMSRFSSSTEQSSASRLLKRHRRRRKQRPPRLERTSSFSSVTDSTMSLNIITVTLNMEKYNFLGISIVGQSNERGDGGIYIGSIMKGGAVAADGRIEPGDMLLQVNDINFENMSNDDAVRVLRDIVHKPGPIVLTVAKCWDPSPQGYFTLPRNEPIHPIDPAAWVSHSAALSGSFPVYPGSASMSSMTSSTSVTETELSHALPPVSLFSLSVHTDLASVVKVMASPESGLEVRDRMWLKITIPNAFLGSDVVDWLYHHVEGFQDRREARKFASNLLKAGFIRHTVNKITFSEQCYYIFGDLTGCENYMTNLSLNDNDGSSGASDQDTLAPLPLPGASPWPLLPTFSYQYQAPHPYSTQPPAYHELSSYSYGMGSAGSQHSEGSRSSGSNRSDGGRGMQKDDRSGVAGVGGGDSKSGSGSESEYSTRSSIRRVGGGEAGPPSERSTSSRLPPHHPPSVHSYAAPGVPLSYNPMMLMMMPPPPLPPPGVCPPNSSVPPGAPPLVRDLASVPPELTATRQSFHMAMGNPSEFFVDVM
modifications: [35S]methionine label
**Q.** B1 was tested. Which fold increase in binding with 1 μM CK1ε against buffer- or GSK3-treated extracts did it give?
**A.** The fold increase in binding with 1 μM CK1ε against buffer- or GSK3-treated extracts was 4 fold and 5 fold.
